Source: the supplement of paper PMC9170038

Tests used:
[1] = tested on: MS2 coat protein; experiment: apparent KD of MS2 coat protein, switch OFF state (with FMN for OFF switches, without FMN for ON switches); designed switch direction (-1 OFF switch, 1 ON switch): -1; higher = weaker reporter binding; conditions: FMN input: 0 or 200 uM; Eterna round: R93 (includes R88 designs)
How it was run: (§1)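 Each design's apparent KD comes from the median of binding-curve fits to its normalised clusters. Those clusters carried RNA switches transcribed on-chip from Illumina sequencing clusters. SNAP-549-labelled MS2 coat protein was titrated onto them in twofold steps (0.7 or 1.5 nM to 3 µM; per step 0.8–1.5 h down to 10–20 min). Conditions were 100 mM Tris-HCl pH 7.5, 80 mM KCl, 4 mM MgCl2, without or with constant ligand.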

[2] = tested on: MS2 coat protein; experiment: apparent KD of MS2 coat protein, switch ON state; designed switch direction (-1 OFF switch, 1 ON switch): -1; higher = weaker reporter binding; conditions: FMN input: 0 or 200 uM; Eterna round: R93 (includes R88 designs)
How it was run: as §1

| Sequence | apparent KD of MS2 coat protein [1] | apparent KD of MS2 coat protein [2] |
| --- | --- | --- |
| AAAUUGUCAGGAUAUCGUAGAACUCUAAAAUAGAGGAGCUACGAGAAGGGACAUGAGGAUCACCCAUGUAAAAC [May 88] | 68.4 nM | 56.2 nM |
| AGUAGAUCAGGAUAUACAUGAAAGAUCAAAAUGUCCAAUAUACAUGAGGAUCACCCAUGUAGAAGGGAUCUACA [Ex2 Design 115: Not so Super Stable 2] | 50.5 nM | 99.9 nM |
| ACAGUUACAGGAUAUACAUGGAAAAAUAAAAAUAAAAAACUACAUGAGGAUCACCCAUGUAGAAGGGUAACUGA [Ex2 Design 197: Random 12F] | 86.9 nM | 42.9 nM |
| AAAAUACAUGAGGAUCACCCAUGUGAGGAUAUGCUAUGGAAAAUAAAAAUAAAACAUAGCAGAAGGUACAAAAA [Denovo 14] | 33.4 nM | 18.2 nM |
| AAAAAACAUGAGGAUCACCCAUGUGAGGAUAUGAUGCGAAUAAAGAAAGAAUAAAGCAUCAGAAGGCACAAAAA [Mat - Exclusion 1 - Eli mod - D62] | 49.6 nM | 36.4 nM |
| AAAAAGGCAGGAUAUACAAAACAGGGAAACCUGAAAGGGAAACAUGAGGAUCACCCAUGUAGAAGGGCCAAGAA [Clint Eastwood 64% 1] | 95.4 nM | 37.3 nM |
| GAAAAACAUGAGGAUCACCCAUGUAAGGAUAUGCGAAAAUAAAAUAAAAUAAAAUAAAGCAGAAGGUACAAAAA [Mat - Exclusion 1 - Eli mod - D1] | 40.5 nM | 29.5 nM |
| CUCUUGUAAGGAUAUUAAUGAAAUGAAGUGAAAGAAAAGAAUAAGAAGGUACAUGAGGAUCACCCAUGUUAGAA [EteRNA is fun!] | 27 nM | 28.9 nM |
| AAAACACAUGAGGAUCACCCAUGUGAGGAUAUGCUAUGGAAAAUAAAAAUAAAACAUAGCAGAAGGCACAAGGA [Denovo 17] | 50 nM | 28 nM |
| AAAAAAUAAGGAUAUACAUUUCGGGAAAUUUUUACAAAAAAACAUGAGGAUCACCCAUGUAGAAGGUAUAAAAA [Exclusion 2] | 17.7 nM | 18.6 nM |
| GAAAACCUAGGAUAUACAUGAGGAUCACCCAUGUCAGUAGACUGGGUAAGGUCUCUCAGUAGAAGGAGGACCCA [Ratilein] | 318 nM | 315 nM |
| AGCUAGUCAGGAUAUACGAACACGUCAAAAGACGUGAAGGGACAUGAGGAUCACCCAUGUAGAAGGGACUAGCA [Mat - Exclusion 2 - JL mod - D24] | 114 nM | 29.8 nM |
| AACAAGUCAGGAUAUACAAAAAGUAAAUAAGUAAAACAAAAGUAGAAGGGACAUGAGGAUCACCCAUGUAAAUA [JR_Exc004_Sub018] | 26.7 nM | 46.8 nM |
| GGUUGGCGAGGAUAUACAUGAGGAUCACCCAUGUGAGAGAAAAAAGUGAGAACGAAAAGUAGAAGGCGCUGACG [salish99-ex3-25] | 1340 nM | 23.5 nM |
| GAAAAGUGAGGAUAUUCGGAUAGGAAAACGAAAACCUAUCCGAAGAAGGCACAUGAGGAUCACCCAUGUAAAAG [Mat - Exaclusion 4 - Eli mod - D36] | 51.9 nM | 41.2 nM |
| AAAGGACGAGGAUAUACAUGAGGAUCACCCAUGUAAAAAACAUAGUAAAAGAACUUGUGUAGAAGGCGUCCAAA [Meechl Ex3 2 R2 v7] | 181 nM | 159 nM |
| AAAAAGUGAGGAUAUACAUGAGGAUCACCCAUGUAAAAGGUCAGGGUGGCGGAGGACGGUAGAAGGCGCAAAAA [Excls3-IX] | 40.2 nM | 34.5 nM |
| AGUUGGCGAGGAUAUACAUGAGGAUCACCCAUGUAAAAAAAAAAAAAAAAAACUUCAUGUAGAAGGCGCUGACA [Starry Exclusion 3.4 (biggestlegoheroicafanever round 1 mod)] | 63.1 nM | 85.5 nM |
| UCUUGACAUGAGGAUCACCCAUGUCAGGAUAUAGUAGGACAAAUAAAUAAAAGUAAUACUAGAAGGGAUAUGGG [Amethyst 52] | 32.6 nM | 29.8 nM |
| AACAGUACAGGAUAUACAUGAGGAUCACCCAUGUGAAAAUUAAGUGGAGAACCACAAAGUAGAAGGGUACUGAA [Mat - Exclusion 3 - Eli mod - D57] | 179 nM | 27.6 nM |
| AAAGGACGAGGAUAUACAUGAGGAUCACCCAUGUGUAAAACGUAAUAAAAGAACUUAUGUAGAAGGCGUCCAAA [Mat - Exclusion 3 - Eli mod - D96] | 214 nM | 64.7 nM |
| AAAAACCUAGGAUAUACAUGAGGAUCACCCAUGUAAAAAAAAAAAAAGGGAAAAAAAAGUAGAAGGAGGAAAAA [Sekhemre Wadjkhaw Sobekemsaf I] | 24.9 nM | 20.6 nM |

| Sequence | apparent KD of MS2 coat protein [1] | apparent KD of MS2 coat protein [2] |
| --- | --- | --- |
| AAAAACCAAGGAUAUACAUGAGGAUCACCCAUGUAAAAAAAAAAAAAGGGAAAAAAAAGUAGAAGGUGGAAAAA [Sekhemre Shedtawy Sobekemsaf II] | 38.6 nM | 20.9 nM |
| AAGAAGUCAGGAUAUGCAAAAGAAAAGAAAAGAAAAGAAAAGCAGAAGGGACAUGAGGAUCACCCAUGUAAGAA [Metsuire Cambyses] | 40.1 nM | 32.7 nM |
| AAAAUGUCAGGAUAUGCGAAGGCGUCUGACGGACGAGGAUUGCAGAAGGGACAUGAGGAUCACCCAUGUAAAAA [Mod Hyphema's Change in Energy -added G at 31] | 133 nM | 79.5 nM |
| AGAAAACAUGAGGAUCACCCAUGUCAGGAUAUACAAAAUAAAAUAAAAAUAAAAUAAAGUAGAAGGGACAAAGA [Mat - Same state - Mayanna Mod - D109] | 42.7 nM | 33.5 nM |
| AAACCACAUGAGGAUCACCCAUGUCAGGAUAUGCUAUGGAAAAUAAAAAUAAAACAUAGCAGAAGGGACAAAAA [Denovo 6] | 66 nM | 37.2 nM |
| AGUAGAUCAGGAUAUACAUAAAUGAUAAUUAUGUAAUUUCUACAUGAGGAUCACCCAUGUAGAAGGGAUCUACA [Ex2 Design 136: Not so Super Stable 24] | 15.2 nM | 14.4 nM |
| AAAGGACAAGGAUAUACAUGAGGAUCACCCAUGUGUAAAACAUAAUAAAAUAACUUAUGUAGAAGGUGUCCAAA [Mat - Exclusion 3 - Eli mod - D100] | 173 nM | 30.5 nM |
| AACAAGUGAGGAUAUCUGGAUAGGAAAAAGAAAACCUAUCCAGAGAAGGCACAUGAGGAUCACCCAUGUAAAAA [JL cataway mod 6] | 34.6 nM | 32.7 nM |
| AACUGACAUGAGGAUCACCCAUGUCAGGAUAUGACUUCGAAAAAAAAAAAAAACGAUGUCAGAAGGGACAUGGG [Design 69: Sub-opt OB] | 22.3 nM | 17.6 nM |
| UUAAAACAUGAGGAUCACCCAUGUGAGGAUAUGCAAUACUAAUAUUAAAAUAAUUAUAGCAGAAGGCACAUAGU [JR_EXc001_Sub802] | 60.4 nM | 28.4 nM |
| AAGCUGGUAGGAUAUACUAGGGCGACUAAUGCGCCGAUAGGACAUGAGGAUCACCCAUGUAGAAGGGCCAGAAA [JR_Exc002_Sub406] | 70 nM | 187 nM |
| AAAACGGCAGGAUAUACAAUUGAGAACUAGAUCGAAAAAAAACAUGAGGAUCACCCAUGUAGAAGGGCCAAAAA [Ex2 Malc#9] | 55.3 nM | 34.7 nM |
| CUCUUGUCAGGAUAUCUAAGAAAAGAAGAGAAAGAAAAGAAAGAGAAGGGACAUGAGGAUCACCCAUGUAAGAA [EteRNA is fun!] | 32.4 nM | 59.3 nM |
| AAAAAACAUGAGGAUCACCCAUGUCAGGAUAUCUGUAUUCAAUCCUCGGAUUGAAUACAGAGAAGGGACAUGAA [Ex1: 603] | 110 nM | 41.3 nM |
| AAAAAGGCAGGAUAUGCAUACUCACGGAAAAAAAGGUUGGGACAUGAGGAUCACCCAUGUAGAAGGGCCAAAAA [Dora Explored 14 - Jieux - Exclusion 2] | 23.8 nM | 29.6 nM |
| UUUAUGUGAGGAUAUGUACAGAAAAAAAAGGGUGUAACUGUACAGAAGGCACAUGAGGAUCACCCAUGUGCAUU [EX4 382: S S Pseudoknot 7] | 21.8 nM | 27.9 nM |
| AAAAAGUGAGGAUAUACAUGAGGAUCACCCAUGUAAAAAAAAAAAAGGGUGGAAGAAAGUAGAAGGCACCAAAA [Ex 3 May 47] | 75.1 nM | 67.3 nM |
| GAAAAGCAAGGAUAUACAUGAGGAUCACCCAUGUGGAAUGGCGUGACCUAAAGAAAAGGUAGAAGGUGCACGUG [Soangebi] | 341 nM | 166 nM |
| AUAAUGCGAGGAUAUACAUGAGGAUCACCCAUGUAAAUCAAUAGGAGAGCCACAUUAAGUAGAAGGUGCAUUAA [JR_Exc003_Sub502] | 49.1 nM | 20.4 nM |
| AAAAAACAUGAGGAUCACCCAUGUAAGGAUAUGCAAAAAAAAAAAAUAAAAAAAAAAAGCAGAAGGUACAUAGA [Starry Exclusion 1.7 (wbt round 1 mod)] | 40.6 nM | 36.6 nM |
| AGCUAGUCAGGAUAUACGAACAGGUCAAAAGACGUGAAGGGACAUGAGGAUCACCCAUGUAGAAGGGACUAGCA [Mat - Exclusion 2 - JL mod - D23] | 116 nM | 39.6 nM |
| GGAUGCGUAGGAUAUACAUGAGGAUCACCCAUGUGAGAGAAAAAAGUGAGAAAGAAAAGUAGAAGGACGUGUCG [salish99-ex3-90] | 85.6 nM | 34.9 nM |
